From CN105367658A (ZHU JIN, dated 2016)

Target: T1, 重组人唾液酸结合免疫球蛋白样凝集素-9蛋白 (human, UniProt Q9Y336 18-348, limits assumed)
T1 construct: Purified recombinant protein coated on ELISA plates and (as 'antigen') coupled to the CM5 chip; also called recombinant human Siglec-9; Siglec9蛋白
Test: SPR (Biacore X100), antigen coupled to CM5 chip, analyte 0-80 nM

T1 sequence (Q9Y336 18-348 limits assumed): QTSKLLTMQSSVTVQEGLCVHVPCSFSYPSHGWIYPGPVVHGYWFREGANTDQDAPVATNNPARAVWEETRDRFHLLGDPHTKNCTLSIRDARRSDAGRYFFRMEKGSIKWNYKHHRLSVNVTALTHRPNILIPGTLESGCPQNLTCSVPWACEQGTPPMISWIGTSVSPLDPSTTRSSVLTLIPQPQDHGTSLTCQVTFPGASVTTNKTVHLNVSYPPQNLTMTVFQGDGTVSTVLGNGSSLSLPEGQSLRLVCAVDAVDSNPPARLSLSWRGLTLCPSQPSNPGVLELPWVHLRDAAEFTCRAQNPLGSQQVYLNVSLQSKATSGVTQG

B1: 人源抗唾液酸结合免疫球蛋白样凝集素-9抗体IgG (antibody, V domains shown)
VH: EVQLVESGAEVKKPGASVKVSCKASGYIFTGYYMHWVRQAPGQGLEWMGWINPKSGGTNYAQKFQGRVTMTRDTSISTAYMELSRLRSDDTAVYYCVRDLGATGGDYWGQGTLVTVSS
VL: ELVLTQPPSVSVSPGQTARVTCSGDALPKKYAYWYQQKSGQAPILVIYGDNKRPSGIPERFSGSSSGTMATLTISGAQVEDEADYYCYSIDRSGNRVFGGGTRLTVLQ
notes: also called PA21抗体; 抗Siglec-9抗体
Kd: 0.738 nM
